Target: VEGF (UniProt P15692)
Assay: solution equilibrium titration (SET) ELISA, crude IVT product 1:400, monovalent fit

Chain of UniProt P15692 (P15692 other isoform, or with tags, fused parts or gaps limits assumed): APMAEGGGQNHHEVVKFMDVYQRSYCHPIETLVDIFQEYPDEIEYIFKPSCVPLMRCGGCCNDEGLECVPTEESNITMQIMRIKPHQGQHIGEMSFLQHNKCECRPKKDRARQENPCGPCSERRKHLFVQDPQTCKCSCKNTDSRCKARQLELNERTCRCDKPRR

Substance | Kd
[H101Y] Avastin scFv | 11.1 pM
[N31H] Avastin scFv | 4.03 pM
[S105T] Avastin scFv | 8.99 pM

Reference: patent US20200370085A1
